# B1: TxGH116 β-glucosidase (Thermoanaerobacterium xylanolyticum LX-11) (protein)
# chain: LTGCSEKININEDKISHKIDIPDSAWTIGIGEKFKNAGHPNVKYPMIDDSYVQGAPLGGFGAGTIGRTYNGGFSRWHLEIGKNKYTTVYANQFSVFQKVEGNKDGVAQVLYAGEPENGYLSSWKWDYPKESGMYYALYPNSWYTYTNKDLPVQLAVKQFSPIIPYNYKETSYPVAVFKWTAYNPTNKNVDVSIMFTWQNMIGFFGKQVNVNSGNFNKIIKDKSKDSEIVAAVMGNISNDNEEWNGEYSIGVKKVPGVDISYKAKFVTTGDGSDLWHEFSKNGILDNKDDETPTKQDGIGSAIAVNFKLQPGQTIEVPFALSWDLPIMKFGGGDKWYKMYTKYFGKNGKNSFAILKEALNNYQKWEKMIDDWQKPILSNKSKPDWYKTALFNELYYLADGGTAWENGKVGEKDKRTNNMFGLLECFDYNYYETLDVRFYGSFPLVMLWPDIEKQVMRQFADTINVQDSSEFKVGSNGAMAVKKVQGMIPHDLGSSYALPWIKINAYDWQNPNIWKDLNSKYVLLVYRDYVLTGKTDKEFLKYTWKSVKTALDKLKEMDKDNDGIPDNEGIPDQTYDTWSMKGTSAYCGSLWLAALKAAQEIGKVLKDNEAYIKYNEWYKIAQQNFEKELWNGEYYNFDTESDHKDSIMADQLAGQWYADILRLGDILPKDHVQKALKKIYEFNVMKFENGKMGAVNGMRPDGIVDESDIQAQEVWTGVTYALASFMKYRGMTEEAYNTAYGVYKMTYDKSGKGYWFRTPEAWTKDGNYRASMYMRPLSIWSMEVNYNEV
# Legend:
# purified protein [1] = substrate: OC[C@H]1O[C@@H](O[C@H]2[C@H](O)[C@@H](CO)OC(O)[C@@H]2O)[C@H](O)[C@@H](O)[C@@H]1O; assay: purified protein; conditions: 60.0 °C
# purified protein [2] = substrate: O=[N+]([O-])c1ccc(O[C@@H]2O[C@H](CO)[C@@H](O)[C@H](O)[C@H]2O)cc1; assay: purified protein; conditions: 60.0 °C
protein,measurement,setting,value
B1,Km,purified protein [1],270 ± 18 µM
same,kcat,purified protein [1],41.4 ± 0.7 s⁻¹
same,kcat/Km,purified protein [1],153000 M⁻¹ s⁻¹
same,Km,purified protein [2],180 ± 8 µM
same,kcat,purified protein [2],49 ± 0.8 s⁻¹
same,kcat/Km,purified protein [2],272000 M⁻¹ s⁻¹

# Source: PMC4949581
